# Reference: patent publication US12365732
# What was measured:
# [1] = biological target: human CD96 on primary human immune cells (PBMCs, NK cells, CD4+ T cells) (human) (UniProt P40200); test: FACS, Ab 80 nM
# [2] = biological target: human CD96 on primary human immune cells (PBMCs, NK cells, CD4+ T cells) (human) (UniProt P40200); test: FACS, Ab 0.00512 nM
# [3] = biological target: human CD96 on primary human immune cells (PBMCs, NK cells, CD4+ T cells) (human) (UniProt P40200); test: FACS, % positive curve
# [4] = biological target: human CD96 on primary human immune cells (PBMCs, NK cells, CD4+ T cells) (human) (UniProt P40200); test: FACS, Ab 0.128 nM
# [5] = biological target: human CD96 on primary human immune cells (PBMCs, NK cells, CD4+ T cells) (human) (UniProt P40200); test: cell-based or functional assay
# [6] = biological target: human CD96 on primary human immune cells (PBMCs, NK cells, CD4+ T cells) (human) (UniProt P40200); test: FACS, Ab 16 nM
# [7] = biological target: human CD96 on primary human immune cells (PBMCs, NK cells, CD4+ T cells) (human) (UniProt P40200); test: FACS, Ab 0.0256 nM
# [8] = biological target: human CD96 on primary human immune cells (PBMCs, NK cells, CD4+ T cells) (human) (UniProt P40200); test: FACS, Ab 0.64 nM
# [9] = biological target: human CD96 on primary human immune cells (PBMCs, NK cells, CD4+ T cells) (human) (UniProt P40200); test: FACS, Ab 3.2 nM
Binder,% positive [1] [%],% positive [2] [%],EC50 [3] [nM],% positive [4] [%],"Human NK cell IFNγ secretion (fold over background), Ab 0.0032 nM [5] [fold]","Human NK cell IFNγ secretion (fold over background), Ab 0.016 nM [5] [fold]","Human NK cell IFNγ secretion (fold over background), Ab 0.08 nM [5] [fold]","Human NK cell IFNγ secretion (fold over background), Ab 0.4 nM [5] [fold]","Human NK cell IFNγ secretion (fold over background), Ab 2 nM [5] [fold]","Human NK cell IFNγ secretion (fold over background), Ab 10 nM [5] [fold]","Human NK cell IFNγ secretion (fold over background), Ab 50 nM [5] [fold]","Human NK cell IFNγ secretion (fold over background), Ab 250 nM [5] [fold]","Human NK cell IFNγ secretion, EC50 [5] [nM]",% positive [6] [%],% positive [7] [%],% positive [8] [%],% positive [9] [%]
"mAb1.v7.NGS8 IgG (antibody, V domains shown) VH: EVQLVQSGAEVKKPGASVKVSCKASGFTFTNNFMHWVRQAPGQGLEWIGMIHANSGITNINEKFKNRVTMTTDTSTSTAYMELRSLRSEDTAVYYCRSDGIYEGYFDYWGQGTLVTVSS VL: DIQLTQSPSSLSASVGDRVTITCKASQNVGTAIVWYQQKPGKAPKVLIYSASTRYTGVPSRFSGSGSGTDFTLTISSLQPEDFATYYCQQYSSSPLTFGQGTKVEIKG",97.8,8.6,0.072,64.2,,,,,,,,,,96.2,22,89.3,92.3
"mAb1.v7.NGS11 IgG (antibody, V domains shown) VH: EVQLVQSGAEVKKPGASVKVSCKASGFTFTNNFMHWVRQAPGQGLEWIGFIHANSGITNINEKFKNRVTMTTDTSTSTAYMELRSLRSEDTAVYYCRSDGVYEGYFDYWGQGTLVTVSS VL: DIQLTQSPSSLSASVGDRVTITCKASQNVGTAIVWYQQKPGKAPKVLIYSASTRYTGVPSRFSGSGSGTDFTLTISSLQPEDFATYYCQQYSSSPLTFGQGTKVEIKG",97.2,5.4,0.083,61.1,,,,,,,,,,96.7,11.6,89.7,94.2
"h10G1 IgG (humanized 10G1) (antibody, V domains shown) VH: EIQLVQSGSELKKPGASVKVSCKASGYPFTTYGMSWVRQAPGQGLEWMGWINTDSGVPTYADDFKGRFVFSLDTSVSTAYLQISSLKAEDTAVYFCARNIYYGWGNFDYWGQGTLVTVSS VL: EIVMTQSPDFQSVTPKEKVTITCRASQDIYRNLHWYQQKPDQTPKLLIKHASDSISGIPSRFSGSGSGTDFTLTINSLEAEDAAAYYCLQGYSMPYTFGGGTKVEIKG",88.7,5.4,0.28,39.1,1,1.13,1.38,1.96,2.08,2.19,2.21,1.87,0.112,81.4,14.6,53.5,64.4

# Continued by falling EC50 [3], values first:
% positive [1] [%],% positive [2] [%],EC50 [3] [nM],% positive [4] [%],"Human NK cell IFNγ secretion (fold over background), Ab 0.0032 nM [5] [fold]","Human NK cell IFNγ secretion (fold over background), Ab 0.016 nM [5] [fold]","Human NK cell IFNγ secretion (fold over background), Ab 0.08 nM [5] [fold]","Human NK cell IFNγ secretion (fold over background), Ab 0.4 nM [5] [fold]","Human NK cell IFNγ secretion (fold over background), Ab 2 nM [5] [fold]","Human NK cell IFNγ secretion (fold over background), Ab 10 nM [5] [fold]","Human NK cell IFNγ secretion (fold over background), Ab 50 nM [5] [fold]","Human NK cell IFNγ secretion (fold over background), Ab 250 nM [5] [fold]","Human NK cell IFNγ secretion, EC50 [5] [nM]",% positive [6] [%],% positive [7] [%],% positive [8] [%],% positive [9] [%],Binder
97.8,8.2,0.071,64.7,,,,,,,,,,97.1,22.5,90.8,95.1,"mAb1.v7.NGS9 IgG (antibody, V domains shown) VH: EVQLVQSGAEVKKPGASVKVSCKASGFTFTNNFMHWVRQAPGQGLEWIGMIHANSGITNINEKFKNRVTMTTDTSTSTAYMELRSLRSEDTAVYYCRSDGVYEGYFDYWGQGTLVTVSS VL: DIQLTQSPSSLSASVGDRVTITCKASQNVGTAIVWYQQKPGKAPKVLIYSASTRYTGVPSRFSGSGSGTDFTLTISSLQPEDFATYYCQQYSSSPLTFGQGTKVEIKG"
97.7,6.1,0.069,66.7,1,1.24,1.36,1.81,2.12,1.94,2.05,1.87,0.084,97.1,16.9,88.8,93.8,"mAb1.v7.NGS10 IgG (antibody, V domains shown) VH: EVQLVQSGAEVKKPGASVKVSCKASGFTFTNNFMHWVRQAPGQGLEWIGFIHANSGITNINEKFKNRVTMTTDTSTSTAYMELRSLRSEDTAVYYCRSDGIYEGYFDYWGQGTLVTVSS VL: DIQLTQSPSSLSASVGDRVTITCKASQNVGTAIVWYQQKPGKAPKVLIYSASTRYTGVPSRFSGSGSGTDFTLTISSLQPEDFATYYCQQYSSSPLTFGQGTKVEIKG"
